Earlier results as cited in patent US5770693A, “Calpain-inhibiting peptide analogs of the kininogen heavy chain” (Temple University-Of The Commonwealth System of Higher …, priority 1995, dated 1998).

Biological target: T1, papain (Carica papaya, UniProt P00784)
T1 sequence (P00784 134-345): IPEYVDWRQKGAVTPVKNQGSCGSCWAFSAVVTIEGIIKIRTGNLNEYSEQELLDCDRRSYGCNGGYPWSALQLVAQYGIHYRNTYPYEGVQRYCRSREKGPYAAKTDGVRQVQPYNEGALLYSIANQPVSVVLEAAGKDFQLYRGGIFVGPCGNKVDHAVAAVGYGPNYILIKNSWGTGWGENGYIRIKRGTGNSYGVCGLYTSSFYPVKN

Question: Which “activity in inhibiting papain (in words)” value does the source give for “Gln-Val-Val-Ala-Gly (QVVAG; printed: Gln-Val-Val-Ala-Gly) [pentapeptide contained in kininogen heavy chain domains D2 and D3]” here?
Answer: weak activity
